Reference: patent US20240084044A1, “Heteromultivalent Nucleic Acid Scaffolds and Uses Thereof” (George Mason University, priority 2022, published 2024)
Values belong to the molecule of their own block, whether it stands above or below them. Bridges are numbered along the chain shown (N, C = ends). Roman numbers before positions name the chains, in order. [ ]: non-standard residue; d: D form. Lys(N3) = [N-]=[N+]=NCCCC[C@H](N)C(=O)O

Tests used:
[1] = molecular target: ST2/IL-33 binary complex (recombinant FLAG-tagged ST2 extracellular domain with recombinant mature IL-33) (UniProt Q01638); assay: SPR (OpenSPR), FLAG-ST2 captured on anti-FLAG mAb and loaded with 50 nM IL-33, IL1RAcP as analyte, 1:1 fit; native IL-1RAcP as analyte
[2] = molecular target: T1, ST2/IL-33 binary complex (Homo sapiens, UniProt O95760+Q01638); assay: SPR dissociation constant for the ST2/IL-33 binary complex; assay type: binding; conditions: SPR, 1:1 fit; read-out: KD to the binary ST2/IL-33 complex
T1 construct: included the extracellular domains, K19-F328 and S21-E359, respectively; the cleaved mature proteins, S112-T270, A117-S269, and R2-S310, respectively; purchased Sino Biologicals ST2 10105-HCCH; IL-33 10368-HNAE; host or cells: ST2: HEK293; IL-33: E. coli
T1 sequence (Q01638 19-328 isoform Q01638-2): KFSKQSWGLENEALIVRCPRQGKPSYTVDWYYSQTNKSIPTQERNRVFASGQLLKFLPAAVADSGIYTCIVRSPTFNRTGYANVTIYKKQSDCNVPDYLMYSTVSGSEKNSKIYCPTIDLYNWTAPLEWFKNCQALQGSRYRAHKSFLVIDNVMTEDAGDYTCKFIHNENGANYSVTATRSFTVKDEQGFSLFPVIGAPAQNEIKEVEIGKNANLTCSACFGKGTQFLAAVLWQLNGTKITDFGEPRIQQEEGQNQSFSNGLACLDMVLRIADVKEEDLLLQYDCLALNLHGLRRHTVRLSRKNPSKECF
T1 sequence (O95760 112-270): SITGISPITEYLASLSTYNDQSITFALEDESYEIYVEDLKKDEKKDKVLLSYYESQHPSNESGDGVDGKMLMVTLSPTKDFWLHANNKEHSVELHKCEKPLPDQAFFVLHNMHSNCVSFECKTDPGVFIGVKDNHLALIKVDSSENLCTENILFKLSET
Excerpt: Recombinant ST2 with truncated FLAG (DDDDK) tag (Cat. #10105-HCCH), His-tagged IL1RAcP (Cat. #10121-H08H), IL-33 (Cat. #10368-HNAE), IL-1β (Cat. #10139-HNAE), and FLAG-tagged SIRT5 (Cat. #19202-H22E) were purchased from Sino Biologicals (Wayne, PA). ST2 and IL1RAcP were expressed in HEK293 cells and included the extracellular domains, K19-F328 and S21-E359, respectively. IL-33, IL-1β, and SIRT5 were expressed in E. coli and included the residue sequence of the cleaved mature proteins, S112-T270, A117-S269, and R2-S310, respectively. Lyophilized ST2, and IL1RAcP were reconstituted in ultrapure (18.5 MΩ) water to a concentration of 0.5 mg/mL (5.6 μM) and stored at −80° C. until use. SIRT5 was reconstituted to 0.2 mg/mL (2.87 μM). To prevent oxidation, IL-33 was reconstituted in 10 mM β-mercaptoethanol (Sigma-Aldrich) to a concentration of 0.1 mg/mL and IL-1β was reconstituted to 0.250 mg/mL. All peptides were purchased from Peptide 2.0 (Chantilly, VA) and designed based on IL1RAcP hotspot residues known to interact with IL-33/ST2 and surrounding residues based on the canonical sequence of IL1RAcP (Uniprot #Q9NPH3). All peptides were modified with acetylated N-terms and amidated C-terms to optimize stability and cyclic peptides cyclized via thioether or disulfide bond. Candidate peptides for the final molecule were also modified with an azido-Lysine and additional N-term alanine or cysteine, to provide the azide group for copper free click chemistry and maintain cyclization. Peptides were stored at −20° C. in lyophilized aliquots of 100 μg or 200 μg and −80° C. after reconstitution in sterile DMSO to a concentration of 10 mM.
SPR experiments were carried out on an OpenSPR instrument (Nicoya). Gold nanoparticle sensor chips (Nicoya) were functionalized by incubation in a solution of ethanol and 10 mM 11-Mercaptoundecanoic acid (MUDA) at RT for a minimum of 48 h, then stored in ethanol at 4° C. until use. Chips were activated with a solution of 200 mM EDC and 50 mM NHS for 3 m at RT. […] Data was analyzed with TraceDrawer software to a 1:1 fit model.

[3] = molecular target: ST2/IL-33 binary complex (recombinant FLAG-tagged ST2 extracellular domain with recombinant mature IL-33) (UniProt Q01638); assay: SPR (OpenSPR): FLAG-ST2 captured on anti-FLAG mAb and loaded with IL-33, peptide as analyte, 1:1 fit; five sensorgrams, the highest to about 390 RU
[4] = molecular target: ST2/IL-33 binary complex (recombinant FLAG-tagged ST2 extracellular domain with recombinant mature IL-33) (UniProt Q01638); assay: SPR (OpenSPR): FLAG-ST2 captured on anti-FLAG mAb and loaded with IL-33, peptide as analyte, 1:1 fit; five sensorgrams, the highest to about 350 RU
[5] = molecular target: T2, ST2 (Homo sapiens, UniProt Q01638); conditions: reported value; read-out: Kd of ST2/IL-33 binary complex; cited from earlier work
T2 sequence (Q01638 19-556): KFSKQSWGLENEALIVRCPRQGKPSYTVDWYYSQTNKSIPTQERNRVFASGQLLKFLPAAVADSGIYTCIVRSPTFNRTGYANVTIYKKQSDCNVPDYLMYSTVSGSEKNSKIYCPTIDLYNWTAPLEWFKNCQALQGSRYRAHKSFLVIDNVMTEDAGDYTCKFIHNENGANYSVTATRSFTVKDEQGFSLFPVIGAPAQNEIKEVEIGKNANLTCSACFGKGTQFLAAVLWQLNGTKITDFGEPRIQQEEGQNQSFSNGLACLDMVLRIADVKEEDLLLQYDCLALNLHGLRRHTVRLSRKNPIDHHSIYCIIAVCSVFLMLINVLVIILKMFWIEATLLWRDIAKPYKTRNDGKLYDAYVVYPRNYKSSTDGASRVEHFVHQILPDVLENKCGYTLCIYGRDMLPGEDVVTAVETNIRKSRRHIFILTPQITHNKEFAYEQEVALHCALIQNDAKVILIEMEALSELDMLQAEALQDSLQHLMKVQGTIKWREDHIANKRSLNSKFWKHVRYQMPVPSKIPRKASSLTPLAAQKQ

[6] = molecular target: ST2/IL-33 binary complex (recombinant FLAG-tagged ST2 extracellular domain with recombinant mature IL-33) (UniProt Q01638); assay: SPR (OpenSPR): FLAG-ST2 captured on anti-FLAG mAb and loaded with IL-33, peptide as analyte, 1:1 fit; five sensorgrams, the highest to about 300 RU
[7] = molecular target: ST2/IL-33 binary complex (recombinant FLAG-tagged ST2 extracellular domain with recombinant mature IL-33) (UniProt Q01638); assay: SPR (OpenSPR): FLAG-ST2 captured on anti-FLAG mAb and loaded with IL-33, MSTOP as analyte, 1:1 fit; sensorgrams to about 620 RU. The text gives 195 nM.
[8] = molecular target: ST2/IL-33 binary complex (recombinant FLAG-tagged ST2 extracellular domain with recombinant mature IL-33) (UniProt Q01638); assay: DSS cross-linking and western blot, 100 nM MSTOP compared with 10 µM free WT peptides, competitor IL-1RAcP
[9] = molecular target: ST2/IL-33 binary complex (recombinant FLAG-tagged ST2 extracellular domain with recombinant mature IL-33) (UniProt Q01638); assay: SPR (OpenSPR), FLAG-ST2 captured on anti-FLAG mAb and loaded with IL-33, MSTOP as analyte, 1:1 fit; MSTOP as analyte
[10] = molecular target: ST2/IL-33 binary complex (recombinant FLAG-tagged ST2 extracellular domain with recombinant mature IL-33) (UniProt Q01638); assay: DSS cross-linking and western blot, 1 µM MSTOP, competitor IL-1RAcP
[11] = molecular target: ST2/IL-33 binary complex (recombinant FLAG-tagged ST2 extracellular domain with recombinant mature IL-33) (UniProt Q01638); assay: DSS cross-linking and western blot, 10 µM MSTOP, competitor IL-1RAcP, normalised to the untreated trimer control
[12] = molecular target: ST2/IL-33 binary complex (recombinant FLAG-tagged ST2 extracellular domain with recombinant mature IL-33) (UniProt Q01638); assay: SPR (OpenSPR), KD compared
[13] = molecular target: T3, IL-33/ST2 on HEK-Blue IL-33 reporter cells (recombinant IL-33 with ST2 stably expressed on the cells), Q01638; assay: cell-based or functional assay
T3 chain 1: T2 sequence (Q01638 19-556)
T3 chain 2: T1 sequence (O95760 112-270)

Molecule: His-tagged IL1RAcP extracellular domain (S21-E359) (from UniProt Q9NPH3 21-359) (receptor)
Kd [1]: 10 µM

Molecule: IL-1RAcP: recombinant His-tagged IL-1 receptor accessory protein extracellular domain S21-E359
Kd [2]: 10 µM

B2: K238 Ac-A-K(N3)-…-NH2 (S) (peptide)
peptide: Ac-A[Lys(N3)]VGSPKNAVPPC-NH2
modifications: thioether 1-13
SMILES: CC(=O)N[C@H]1CSC[C@@H](C(N)=O)NC(=O)[C@@H]2CCCN2C(=O)[C@@H]2CCCN2C(=O)[C@H](C(C)C)NC(=O)[C@H](C)NC(=O)[C@H](CC(N)=O)NC(=O)[C@H](CCCCN)NC(=O)[C@@H]2CCCN2C(=O)[C@H](CO)NC(=O)CNC(=O)[C@H](C(C)C)NC(=O)[C@H](CCCCN=[N+]=[N-])NC1=O
Kd [4]: 105 µM

B3: IL-33: recombinant interleukin-33 cytokine, ligand of ST2 (protein, UniProt O95760 1-270, looked up)
Interleukin-33: MKPKMKYSTNKISTAKWKNTASKALCFKLGKSQQKAKEVCPMYFMKLRSGLMIKKEACYFRRETTKRPSLKTGRKHKRHLVLAACQQQSTVECFAFGISGVQKYTRALHDSSITGISPITEYLASLSTYNDQSITFALEDESYEIYVEDLKKDEKKDKVLLSYYESQHPSNESGDGVDGKMLMVTLSPTKDFWLHANNKEHSVELHKCEKPLPDQAFFVLHNMHSNCVSFECKTDPGVFIGVKDNHLALIKVDSSENLCTENILFKLSET
Kd [5]: 0.026 nM

The next lines start with the values.

Kd [3]: 47 µM
B1: K343/K346 Ac-C-K(N3)-…-NH2 (S-S) (peptide)
peptide: Ac-C[Lys(N3)]GEVAKAAKVKC-NH2
modifications: disulfide 1-13
SMILES: CC(=O)N[C@H]1CSSC[C@@H](C(N)=O)NC(=O)[C@H](CCCCN)NC(=O)[C@H](C(C)C)NC(=O)[C@H](CCCCN)NC(=O)[C@H](C)NC(=O)[C@H](C)NC(=O)[C@H](CCCCN)NC(=O)[C@H](C)NC(=O)[C@H](C(C)C)NC(=O)[C@H](CCC(=O)O)NC(=O)CNC(=O)[C@H](CCCCN=[N+]=[N-])NC1=O

Kd [6]: 57 µM
B4: R157 Ac-C-K(N3)-…-NH2 (S-S) (peptide)
peptide: Ac-C[Lys(N3)]EYGIQRITC-NH2
modifications: disulfide 1-11
SMILES: CC[C@H](C)[C@@H]1NC(=O)CNC(=O)[C@H](Cc2ccc(O)cc2)NC(=O)[C@H](CCC(=O)O)NC(=O)[C@H](CCCCN=[N+]=[N-])NC(=O)[C@@H](NC(C)=O)CSSC[C@@H](C(N)=O)NC(=O)[C@H]([C@@H](C)O)NC(=O)[C@H]([C@@H](C)CC)NC(=O)[C@H](CCCNC(=N)N)NC(=O)[C@H](CCC(N)=O)NC1=O

Kd [7]: 127 nM
fold increase in efficiency against the 10 µM WT peptide treatment [8]: 100 fold
Kd [9]: 195 nM
reduction of trimer formation [10]: 40%
reduction in trimer formation [11]: 70%
fold increase in affinity compared to the individual peptides and IL-1RAcP [12]: 100 fold
IL-33 induced SEAP expression (HEK-Blue IL-33 reporter cells, 1 µM MSTOP) [13]: 40 % reduction
B5: MSTOP prototype (Multivalent Specific Topology-targeting DNA-Origami Peptide Inhibitor): 3-way junction DNA scaffold carrying three cyclized azidolysine … (designed binder)
peptide 1: Ac-CKEYGIQRITC-NH2
peptide 2: Ac-AKVGSPKNAVPPC-NH2
peptide 3: Ac-CKGEVAKAAKVKC-NH2
modifications: disulfide I:1-I:11, III:1-III:13; thioether II:1-II:13; not fully specified (some residues); also: three peptides held on a 3-way junction DNA scaffold via DBCO staple strands
